Experimental data: publication PMC9650030, “The RNA repair proteins RtcAB regulate transcription activator RtcR via its CRISPR-associated Rossmann fold domain” (iScience, 2022)

T1: MBP-RtcR (wild-type, full-length RtcR N-terminally tagged with maltose binding protein) (Escherichia coli, UniProt P38035 1-532, labelled with Monolith RED-NHS 2nd Generation dye (amine reactive) in the MST experiments only)
T1 construct: also called RtcRWT; MBP-RtcRWT; not shown: MBP, N-terminal, kept
T1 sequence (looked up): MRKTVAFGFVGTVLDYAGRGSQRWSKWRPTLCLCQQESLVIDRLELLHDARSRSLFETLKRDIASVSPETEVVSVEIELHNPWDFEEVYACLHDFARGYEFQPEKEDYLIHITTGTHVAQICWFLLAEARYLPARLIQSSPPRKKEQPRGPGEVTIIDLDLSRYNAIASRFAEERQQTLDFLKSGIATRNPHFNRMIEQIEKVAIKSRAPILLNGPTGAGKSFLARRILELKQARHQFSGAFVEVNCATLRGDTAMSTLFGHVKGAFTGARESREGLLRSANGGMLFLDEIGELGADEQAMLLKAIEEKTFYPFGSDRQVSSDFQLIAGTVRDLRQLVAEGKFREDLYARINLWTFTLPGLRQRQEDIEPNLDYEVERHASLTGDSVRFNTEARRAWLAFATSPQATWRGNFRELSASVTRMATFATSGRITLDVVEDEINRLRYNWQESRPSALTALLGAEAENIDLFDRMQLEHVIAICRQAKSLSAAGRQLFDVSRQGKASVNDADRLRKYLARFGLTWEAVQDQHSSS


Tests used:
[1] = biological target: MBP-RtcR (wild-type, full-length RtcR N-terminally tagged with maltose binding protein) (Escherichia coli) (UniProt P38035); experiment: MST; RED-NHS-labelled MBP-RtcRWT or RtcR_(ΔCARF) (diluted to 50 nM, mixed with an equal volume) against a serial dilution of RtcA or RtcB; 24°C; modified PBS (250 mM NaCl) with 0.05% Tween-20; fitted with the Hill equation
[2] = biological target: T1, MBP-RtcR (wild-type, full-length RtcR …); experiment: as above; details: both partners purified

Row | Kd [1] [µM] | Kd [2] [µM] | Molecule
1 | 14.5 | – | His-RtcB (N-terminal his-tagged RNA ligase RtcB) (from UniProt P46850 1-408) (enzyme)
2 | – | ~5 | His-RtcA (N-terminal his-tagged RNA 3'-terminal phosphate cyclase RtcA) (enzyme, Escherichia coli, UniProt P46849 1-338, looked up, RtcA, RNA 3'-terminal phosphate cyclase, Escherichia coli; not shown: His tag, N-terminal, kept) MKRMIALDGAQGEGGGQILRSALSLSMITGQPFTITSIRAGRAKPGLLRQHLTAVKAATEICGATVEGAELGSQRLLFRPGTVRGGDYRFAIGSAGSCTLVLQTVLPALWFADGPSRVEVSGGTDNPSAPPADFIRRVLEPLLAKIGIHQQTTLLRHGFYPAGGGVVATEVSPVASFNTLQLGERGNIVQMRGEVLLAGVPRHVAEREIATLAGSFSLHEQNIHNLPRDQGPGNTVSLEVESENITERFFVVGEKRVSAEVVAAQLVKEVKRYLASTAAVGEYLADQLVLPMALAGAGEFTVAHPSCHLLTNIAVVERFLPVRFSLIETDGVTRVSIE
